Source: PMC6883096

Legend:
[1] = target: DS428 (BaxA I51V) (Bacillus amyloliquefaciens)
[2] = target: catalytic domain of Thermomonospora fusca TF xylanase A (TfxA_CD) (Thermomonospora fusca TF)
[3] = target: DS241 (BaxA S31R) (Bacillus amyloliquefaciens)
[4] = target: recombinant Bacillus amyloliquefaciens xylanase A (reBaxA) (Bacillus amyloliquefaciens)
[5] = target: DS153 (BaxA N29S) (Bacillus amyloliquefaciens)

inhibitory rate of xylanase activity after incubation of the xylanase with rePRIXI at 50°C for 40 min (residual activity on beechwood xylan) [1]: 11.3%
inhibitory rate of xylanase activity after incubation of the xylanase with rePRIXI at 50°C for 40 min (residual activity on beechwood xylan) [2]: 11.2%
inhibitory rate of xylanase activity after incubation of the xylanase with rePRIXI at 50°C for 40 min (residual activity on beechwood xylan) [3]: 20.5%
inhibitory rate of xylanase activity after incubation of the xylanase with rePRIXI at 50°C for 40 min (residual activity on beechwood xylan) [4]: 30.3%
inhibitory rate of xylanase activity after incubation of the xylanase with rePRIXI at 50°C for 40 min (residual activity on beechwood xylan) [5]: 14.8%
B1: recombinant rice xylanase inhibitor (rePRIXI) (natural protein)
chain: AGKTGQMTVFWGRNKNEGTLKETCDTGLYTTVVISFYSVFGHGRYWGDLSGHDLRVIGADIKHCQSKNIFVFLSIGGAGKDYSLPTSKSAADVADNIWNAHMDGRRPGVFRPFGDAAVDGIDFFIDQGAPDHYDDLARNLYAYNKMYRARTPVRLTATVRCAFPDPRMKKALDTKLFERIHVRFYDDATCSYNHAGLAGVMAQWNKWTARYPGSHVYLGLAAANVPGKNDNVFIKQLYYDLLPNVQKAKNYGGIMLWDRFYDKQTGYGKTVKYWA
